Data from patent US20180105572A1.

How the values were obtained:
[1] = target: α4β7 integrin on RPMI 8866 cells (UniProt P13612); assay: cell-based or functional assay
[2] = target: rh integrin α4β7 (R&D Systems #5397-A30) (human) (UniProt P13612); assay: α4β7-MAdCAM competition ELISA

Substance | Cell Adhesion A4B7 (nM); RPMI 8866 cells adhering to plate-bound rh MAdCAM-1/Fc Chimera, MTT read-out [1] [nM] | IC50 [2] [nM]
C-N cyclic peptide SEQ ID NO: 477, Cyclo(a-(N-Me-R)-S-D-T-L-a) | > 10000 | 
C-N cyclic peptide SEQ ID NO: 479, cyclo<a-(N-Me-R)-S-D-T-L-n> | > 10000 | 
C-N cyclic peptide SEQ ID NO: 484, cyclo<a-(N-Me-R)-S-D-T-L-e> | > 1000 | 
C-N cyclic peptide SEQ ID NO: 490, cyclo<a-(N-Me-R)-S-D-T-L-h> |  | > 1000
C-N cyclic peptide SEQ ID NO: 492, cyclo<a-(N-Me-R)-S-D-T-L-f> |  | > 1000
C-N cyclic peptide SEQ ID NO: 494, cyclo<f-(N-Me-R)-S-D-T-L-a> |  | > 1000
C-N cyclic peptide SEQ ID NO: 495, cyclo<f-(N-Me-R)-S-D-T-L-a> | > 10000 | 
C-N cyclic peptide SEQ ID NO: 496, cyclo<l-(N-Me-R)-S-D-T-L-a> |  | > 1000
C-N cyclic peptide SEQ ID NO: 498, cyclo<p-(N-Me-R)-S-D-T-L-a> |  | > 1000
C-N cyclic peptide SEQ ID NO: 500, cyclo<r-(N-Me-R)-S-D-T-L-a> |  | > 1000
C-N cyclic peptide SEQ ID NO: 502, cyclo<A-(N-Me-R)-S-D-T-L-a> |  | > 1000
C-N cyclic peptide SEQ ID NO: 503, cyclo<A-(N-Me-R)-S-D-T-L-k> |  | > 1000
C-N cyclic peptide SEQ ID NO: 504, cyclo<a-(N-Me-R)-S-D-T-L-A-a> |  | > 1000

Continued, values first:

Cell Adhesion A4B7 (nM); RPMI 8866 cells adhering to plate-bound rh MAdCAM-1/Fc Chimera, MTT read-out [1] [nM] | IC50 [2] [nM] | Substance
 | > 1000 | C-N cyclic peptide SEQ ID NO: 478, cyclo<a-(N-Me-R)-S-D-T-L-n>
 | > 1000 | C-N cyclic peptide SEQ ID NO: 480, cyclo<h-(N-Me-R)-S-D-T-L-a>
 | > 1000 | C-N cyclic peptide SEQ ID NO: 482, cyclo<a-(N-Me-R)-S-D-T-L-e>
 | > 1000 | C-N cyclic peptide SEQ ID NO: 483, cyclo<a-(N-Me-R)-S-D-T-L-e>
 | > 1000 | C-N cyclic peptide SEQ ID NO: 485, cyclo<k-(N-Me-R)-S-D-T-L-a>
 | > 1000 | C-N cyclic peptide SEQ ID NO: 486, cyclo<k-(N-Me-R)-S-D-T-L-a>
 | > 1000 | C-N cyclic peptide SEQ ID NO: 489, cyclo<a-(N-Me-R)-S-D-T-L-l>
